The source of these data is patent publication US20180037631A1 (Bristol-Myers Squibb, published 2018).

First the molecules themselves.
B1: E27 (designed binder)
10Fn3 domain: MGVSDVPRDLEVVAATPTSLLISWSKGSKSYQYYRITYGETGGNSPVQEFTVPYHVYTATISGLKPGVDYTITVYAVTDYYNPATYEYIYLTTPISINYRTEIDKPSQ
B2: E25 (designed binder)
10Fn3 domain: MGVSDVPRDLEVVAATPTSLLISWGYQSGGYTYYRITYGETGGNSPVQEFTVPHDLRTATISGLKPGVDYTITVYAVTDYAYKEYQEHPISINYRTEIDKPSQ
B3: E23 (designed binder)
10Fn3 domain: MGVSDVPRDLEVVAATPTSLLISWQVPRPMYQYYRITYGETGGNSPVQEFTVPYDVITATISGLKPGVDYTITVYAVTDMMHVEYAEYPISINYRTEIDKPSQ
B4: E26 (designed binder)
10Fn3 domain: MGVSDVPRDLEVVAATPTSLLISWWIGIPVYQYYRITYGETGGNSPVQEFTVPYDGKTATISGLKPGVDYTITVYAVTDMMHVEYAEYPISINYRTEIDKPSQ
B5: E22 (designed binder)
10Fn3 domain: MGVSDVPRDLEVVAATPTSLLISWSTGRTTYQYYRITYGETGGNSPVQEFTVPHDLDTATISGLKPGVDYTITVYAVTDSYNPATHEYKYHQTPISINYRTEIDKPSQ
B6: E24 (designed binder)
10Fn3 domain: MGVSDVPRDLEVVAATPTSLLISWQVPRPMYQYYRITYGETGGNSPVQEFTVPGQVPTATISGLKPGVDYTITVYAVTDSYNPATHEYKYHQTPISINYRTEIDKPSQ
B7: E100 (designed binder)
10Fn3 domain: MGVSDVPRDLEVVAATPTSLLISWTPANKSYQYYRITYGETGGNSPVQEFTVPHDLVTATISGLKPGVDYTITVYAVTDHKPHADGPHTYHEYPISINYRTEIDKPSQ
B8: E101 (designed binder)
10Fn3 domain: MGVSDVPRDLEVVAATPTSLLISWDAPAVTYQYYRITYGETGGNSPVQEFTVPHDLVTATISGLKPGVDYTITVYAVTDYKPHADGPHTYHESPISINYRTEIDKPSQ
B9: E109 (designed binder)
10Fn3 domain: MGVSDVPRDLEVVAATPTSLLISWDAPTSRYQYYRITYGETGGNSPVQEFTVPHDLVTATISGLKPGVDYTITVYAVTDYKPHADGPHTYHESPISINYRTEIDKPSQ
B10: E104 (designed binder)
10Fn3 domain: MGVSDVPRDLEVVAATPTSLLISWDAGAVTYQYYRITYGETGGNSPVQEFTVPHDLVTATISGLKPGVDYTITVYAVTDHKPHADGPHTYHEYPISINYRTEIDKPSQ
B11: E102 (designed binder)
10Fn3 domain: MGVSDVPRDLEVVAATPTSLLISWTPANKSYQYYRITYGETGGNSPVQEFTVPHDLVTATISGLKPGVDYTITVYAVTDHKPHADGPHTYHESPISINYRTEIDKPSQ
B12: E106 (designed binder)
10Fn3 domain: MGVSDVPRDLEVVAATPTSLLISWDAPAVTYQYYRITYGETGGNSPVQEFTVPYDVYTATISGLKPGVDYTITVYAVTDYKPHADGPHTYHEYPISINYRTEIDKPSQ
B13: E111 (designed binder)
10Fn3 domain: MGVSDVPRDLEVVAATPTSLLISWDAPTSRYQYYRITYGETGGNSPVQEFTVPHDLVTATISGLKPGVDYTITVYAVTNMMHVEYSEYPISINYRTEIDKPSQ
B14: E105 (designed binder)
10Fn3 domain: MGVSDVPRDLEVVAATPTSLLISWDAPTSRYQYYRITYGETGGNSPVQEFTVPGGLSTATISGLKPGVDYTITVYAVTDYKPHADGPHTYHESPISINYRTEIDKPSQ
B15: E112 (designed binder)
10Fn3 domain: MGVSDVPRDLEVVAATPTSLLISWDAGAVTYQYYRITYGETGGNSPVQEFTVPGGVRTATISGLKPGVDYTITVYAVTDYKPHADGPHTYHEYPISINYRTEIDKPSQ
B16: E110 (designed binder)
10Fn3 domain: MGVSDVPRDLEVVAATPTSLLISWDAGAVTYQYYRITYGETGGNSPVQEFTVPGGVRTATISGLKPGVDYTITVYAVTDYKPHADGPHTYHESPISINYRTEIDKPSQ
B17: E108 (designed binder)
10Fn3 domain: MGVSDVPRDLEVVAATPTSLLISWDAPAVTYQYYRITYGETGGNSPVQEFTVPGGVRTATISGLKPGVDYTITVYAVTDYKPHADGPHTYHESPISINYRTEIDKPSQ
B18: E107 (designed binder)
10Fn3 domain: MGVSDVPRDLEVVAATPTSLLISWDSGRGSYQYYRITYGETGGNSPVQEFTVPYDVYTATISGLKPGVDYTITVYAVTDMMHVEYTEHPISINYRTEIDKPSQH
B19: E103 (designed binder)
10Fn3 domain: MGVSDVPRDLEVVAATPTSLLISWTPANKSYQYYRITYGETGGNSPVQEFTVPGGVRTATISGLKPGVDYTITVYAVTNMMHVEYSEYPISINYRTEIDKPSQ
B20: E16 (designed binder)
10Fn3 domain: MGVSDVPRDLEVVAATPTSLLISWQVPRPMYQYYRITYGETGGNSPVQEFTVPYDLVTATISGLKPGVDYTITVYAVTDHKPHADGPHTYHESPISINYRTEIDKPSQ
B21: E11 (designed binder)
10Fn3 domain: MGVSDVPRDLEVVAATPTSLLISWTPANKSYQYYRITYGETGGNSPVQEFTVPYDGTTATISGLKPGVDYTITVYAVTDHKPHADGPHTYHEYPISINYRTEIDKPSQ
B22: E10 (designed binder)
10Fn3 domain: MGVSDVPRDLEVVAATPTSLLISWYPGSRTYQYYRITYGETGGNSPVQEFTVPGGVRTATISGLKPGVDYTITVYAVTDYYHPATYEHEYHAHPISINYRTEIDKPSQ
B23: E17 (designed binder)
10Fn3 domain: MGVSDVPRDLEVVAATPTSLLISWQVPRPMYQYYRITYGETGGNSPVQEFTVPGMVHTATISGLKPGVDYTITVYAVTDHKPHADGPHTYHESPISINYRTEIDKPSQ
B24: E12 (designed binder)
10Fn3 domain: MGVSDVPRDLEVVAATPTSLLISWQVPRPMYQYYRITYGETGGNSPVQEFTVPHDVYTATISGLKPGVDYTITVYAVTDSYNPATHEYKYHQTPISINYRTEIDKPSQ
B25: E14 (designed binder)
10Fn3 domain: MGVSDVPRDLEVVAATPTSLLISWQVPRPMYQYYRITYGETGGNSPVQEFTVPYDVTTATISGLKPGVDYTITVYAVTDSYNPATHEYKYHQTPISINYRTEIDKPSQ
B26: E8 (designed binder)
10Fn3 domain: MGVSDVPRDLEVVAATPTSLLISWQVPRPMYQYYRITYGETGGNSPVQEFTVPYDLTTATISGLKPGVDYTITVYAVTDSYNPATHEYKYHQTPISINYRTEIDKPSQ
B27: E15 (designed binder)
10Fn3 domain: MGVSDVPRDLEVVAATPTSLLISWQVPRPMYQYYRITYGETGGNSPVQEFTVPHDLRTATISGLKPGVDYTITVYAVTDSYNPATHEYKYHQTPISINYRTEIDKPSQ
B28: E7 (designed binder)
10Fn3 domain: MGVSDVPRDLEVVAATPTSLLISWQVPRPMYQYYRITYGETGGNSPVQEFTVPYDVHTATISGLKPGVDYTITVYAVTDSYNPATHEYKYHQTPISINYRTEIDKPSQ
B29: E13 (designed binder)
10Fn3 domain: MGVSDVPRDLEVVAATPTSLLISWQVPRPMYQYYRITYGETGGNSPVQEFTVPGQVYTATISGLKPGVDYTITVYAVTDSYNPATHEYKYHQTPISINYRTEIDKPSQ
B30: E9 (designed binder)
10Fn3 domain: MGVSDVPRDLEVVAATPTSLLISWEANPSRYQYYRITYGETGGNSPVQEFTVPHDLNTATISGLKPGVDYTITVYAVTDSYNPATHEYKYHQTPISINYRTEIDKPSQ
B31: E6 (designed binder)
10Fn3 domain: MGVSDVPRDLEVVAATPTSLLISWQVPRPMYQYYRITYGETGGNSPVQEFTVPYDVYTATISGLKPGVDYTITVYAVTDSYNPATHEYKYHQTPISINYRTEIDKPSQ

The target of one assay is T1, EGFR on the surface of human tumour cells (A431, H292) (human, UniProt P00533 25-1210). Kind of assay: cell-based or functional assay.
Turning to B1, the “% inhibition of EGFR phosphorylation at 100 nM binder, cell-based assay” value (from here on “% inhibition of EGFR phosphorylation”) came to 94.6%.
As to B2, the “% inhibition of EGFR phosphorylation” value was determined as 77.1%.
The same measure, in the same setting: the figure for B3 is 81.1%; for B4 it is 75.4%.
The same measure, in the same setting: the figure for B5 is 83.7%; for B6 it is 90.3%.

A further assay addresses T1, EGFR on the surface of human tumour …. Kind of assay: cell-based or functional assay. The source holds these as a separate data set.
On to B7, for which the “% inhibition of EGFR phosphorylation” value worked out at 83.3%.
Take B8: the “% inhibition of EGFR phosphorylation” value worked out at 90.9%.
Regarding B9, the “% inhibition of EGFR phosphorylation” value was found to be 90.9%.
Turning to B10, the “% inhibition of EGFR phosphorylation” value is 89.3%.
For B11, the “% inhibition of EGFR phosphorylation” value stood at 80%.
The same measure, in the same setting: the figure for B12 is 84%; for B13 it is 85.5%; for B14 it is 87%.
Same read-out and setting: the figure for B15 is 86.2%; for B16 it is 81.3%; for B17 it is 80%.
In the case of B18, the “% inhibition of EGFR phosphorylation” value worked out at 75.8%.
The same measure, in the same setting: for B19 the value was 76.3%.

The target is the same in another assay. Kind of assay: cell-based or functional assay. This is another data set of the same source.
For the molecule B20, the “% inhibition of EGFR phosphorylation” value was found to be 97.7%.
With B21, the “% inhibition of EGFR phosphorylation” value was found to be 83.7%.
Turning to B22, the “% inhibition of EGFR phosphorylation” value stood at 84.7%.
The same measure, in the same setting: for B23 the value was 75.5%; for B24, 76.5%.
The same measure, in the same setting: for B25 the value was 80.4%.
Same read-out and setting: the figure for B26 is 92.4%.
Take B27: the “% inhibition of EGFR phosphorylation” value amounted to 88.8%.
The same measure, in the same setting: for B28 the value was 89.4%; for B29, 86.7%.
On the same count and under the same terms, the figure for B30 is 77.3%; for B31 it is 80%.
